In patent US20210246218A1 (LYVGEN BIOPHARMA SUZHOU, published 2021):
Where “and” joins values, the source holds several entries; their conditions need not be identical. Equal entries are not always repeated.

What was measured:
Ly050 = molecular target: T1, Ly050; experiment: ELISA, clone 3712-IgG1v coated, CD137 protein titrated (EC50 is a concentration of the CD137 protein); full sigmoid, plateau about 2.2
T1 chain: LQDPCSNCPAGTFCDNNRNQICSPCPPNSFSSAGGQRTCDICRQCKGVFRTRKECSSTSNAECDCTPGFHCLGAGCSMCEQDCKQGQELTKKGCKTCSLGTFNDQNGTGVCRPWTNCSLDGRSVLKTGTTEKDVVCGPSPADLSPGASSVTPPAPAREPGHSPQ
Procedure: (§1) The plate was decanted and washed once; assay diluent was added 200 μL/well. After one-hour incubation at room temperature, the plate was washed with PBST one time. CD137 receptor human/mouse chimeras were diluted in assay diluent to 100 or 10 μg/mL, and then a 4-fold serial dilution in assay diluent for 11 points to final concentrations of 100000, 25000, 6250, 1562.5, 390.63, 97.66, 24.41, 6.10, 1.53, 0.38 and 0.095 ng/mL or 10000, 2500, 625, 156.25, 39.06, 9.77, 2.44, 0.61, 0.15, 0.038 and 0.0095 ng/mL. The diluted CD137 receptor was added to the assay plate, 50 μL/well, in duplicate. The plate was incubated one hour at room temperature and then washed three times with PBST. Goat anti-human IgG-H+L HRP conjugated at 1:100,000 20 dilution was added to the plate at 100 μL/well. The plate was then incubated one hour at room temperature followed by washing with PBST four times. The TMB substrate solution was added at 100 μL/well. The color was allowed to develop for 15 minutes, and was stopped with 100 μL/well 2N H2SO4. Absorbance at 450 nm and 620 nm was determined by a Tecan F200 Pro reader.

[1] = molecular target: T2, recombinant cynomolgus monkey CD137 receptor protein (cynomolgus monkey, UniProt A9YYE7 24-186); experiment: ELISA, cynomolgus CD137 protein coated; average, n=6
T2 construct: Coated on ELISA plates; also called Cyno CD137
T2 sequence (A9YYE7 entry or part of it): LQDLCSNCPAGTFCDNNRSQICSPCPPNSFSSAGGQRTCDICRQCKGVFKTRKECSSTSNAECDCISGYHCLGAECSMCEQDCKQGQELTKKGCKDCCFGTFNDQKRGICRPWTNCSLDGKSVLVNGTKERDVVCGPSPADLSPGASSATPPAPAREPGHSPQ
Procedure: (§2) The human or cynomolgus monkey CD137 receptor protein was diluted in DPBS to 1 μg/mL, and then coated onto an ELISA plate (Corning, Catalog number: 9018, high binding) with a volume of 100 μL (0.1 μg) or 50 μL (0.05 μg) per well, and incubated at 4° C. overnight. The plate was decanted and washed once; assay diluent was added 200 μL/well. After a one-hour incubation at room temperature, the plate was washed with PBST one time. […] The plate was incubated one hour at room temperature and then washed three times with PBST. Goat anti-human IgG-H+L HRP conjugated at 1:100,000 dilution was added to the plate at 100 μL/well. The plate was then incubated one hour at room temperature followed by washing with PBST four times. The TMB substrate solution was added at 100 μL/well. The color was allowed to develop for 15 minutes, and was stopped with 100 μL/well 2N H₂SO₄. Absorbance at 450 nm and 620 nm was determined by a Tecan F200 Pro reader.
(§3) Graphpad 7.0, “[Agonist] vs. response—Variable slope (four parameters)” was used to plot the binding data and calculate binding EC₅₀ values.

[2] = molecular target: T3, recombinant human CD137 receptor protein (human, UniProt Q07011 24-186); experiment: ELISA, huCD137 coated, clone 3712 titrated; full sigmoid, plateau about 1.5
T3 construct: Coated on ELISA plates; also called recombinant human CD137 protein
Procedure: (§4) For the data shown in FIGS. 16C-D, chimeric CD137 receptor protein samples were diluted in DPBS to 5 μg/mL and then coated onto an ELISA plate (Corning, Catalog number: 9018, high binding) at 50 μL (0.25 μg) per well, and incubated at 4° C. overnight. The plate was decanted and washed once; assay diluent was added at 200 μL/well. After a 1-hour incubation at room temperature, the plate was washed with PBST one time. […] The plate was incubated 1 hour at room temperature and then washed three times with PBST. Goat anti-human IgG-H+L HRP-conjugated at 1:100,000 dilution or goat anti-mouse IgG (H+L) secondary antibody, HRP, 10 at 1:50,000 dilution was added to the plate at 100 μL/well. The plate was incubated 1 hour at room temperature followed by washing with PBST four times. The TMB substrate solution was added 100 μL/well. The color was permitted to develop for 15 minutes and then 100 μL/well 2N H2SO4 was added to terminate the reaction. Absorbance at 450 nm and 620 nm was determined by a Tecan F200 Pro reader.

Ly051 = molecular target: T4, Ly051; experiment: ELISA, CD137 protein coated, clone 3712 titrated; flat curve, fit marked ~ (see non_binding)
T4 chain: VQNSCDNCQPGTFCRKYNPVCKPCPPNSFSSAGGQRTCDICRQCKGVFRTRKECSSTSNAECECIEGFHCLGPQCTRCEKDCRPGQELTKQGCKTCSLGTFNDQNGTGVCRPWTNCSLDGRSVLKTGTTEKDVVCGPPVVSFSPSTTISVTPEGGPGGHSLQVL
Procedure: as §4

Ly110 = molecular target: T5, Ly110; experiment: ELISA, clone 3712-IgG1v coated, CD137 protein titrated (EC50 is a concentration of the CD137 protein); full sigmoid, plateau about 1.9
T5 chain: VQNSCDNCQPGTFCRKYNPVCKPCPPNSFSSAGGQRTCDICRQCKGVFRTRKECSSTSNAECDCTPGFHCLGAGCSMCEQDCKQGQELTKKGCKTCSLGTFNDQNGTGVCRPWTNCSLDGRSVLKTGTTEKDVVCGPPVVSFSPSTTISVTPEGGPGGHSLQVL
Procedure: as §1

[3] = molecular target: T3, recombinant human CD137 receptor protein; experiment: ELISA, recombinant human CD137 protein coated, antibody titrated
Procedure: as §2, §3

[4] = molecular target: T6, human FcγRI on CHO-K1 cells (human, UniProt P12314 16-374); experiment: flow cytometry on CHO-huFcγRIA cells, PE anti-human Fc F(ab')2
T6 construct: whole, on cells; also called CHO-K1-huFcγRI; CHO-huFcγRIA
T6 sequence (P12314 16-374): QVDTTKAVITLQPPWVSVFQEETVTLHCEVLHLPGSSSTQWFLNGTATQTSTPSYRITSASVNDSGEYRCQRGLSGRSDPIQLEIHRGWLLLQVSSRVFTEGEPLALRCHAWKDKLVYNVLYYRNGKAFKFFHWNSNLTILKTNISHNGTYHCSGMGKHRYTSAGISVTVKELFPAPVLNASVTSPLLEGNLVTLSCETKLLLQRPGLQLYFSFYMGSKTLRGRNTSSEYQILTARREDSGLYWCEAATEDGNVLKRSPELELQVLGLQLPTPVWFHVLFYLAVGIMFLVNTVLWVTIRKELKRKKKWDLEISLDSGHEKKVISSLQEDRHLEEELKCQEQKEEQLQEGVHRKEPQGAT
Procedure: The plate was mixed and incubated in the dark for 2 hours at 4° C. […] The plate was incubated in the dark for another 1 hour at 4° C. The cells were washed 2 times by centrifugation at 1000 g for 3 min and resuspended in ice cold assay buffer containing 2% PFA.

B1: Clone 3712-IgG1v (IgG1v/kappa) (antibody)
heavy: QVQLVQSGAEVKKPGASVKVSCKASGYTFAGFEMHWVRQAPGQGLEWMGAIDPKTGGTDYNQKFKDRVTMTRDTSISTAYMELSRLRSDDTAVYYCARDLGYFDVWGQGTLVTVSSASTKGPSVFPLAPSSKSTSGGTAALGCLVKDYFPEPVTVSWNSGALTSGVHTFPAVLQSSGLYSLSSVVTVPSSSLGTQTYICNVNHKPSNTKVDKKVEPKSCDKTHTCPPCPAPELLGPSVFLFPPKPKDTLMISRTPEVTCVVVDVEHEDPEVKFNWYVDGVEVHNAKTKPREEQYNSTYRVVSVLTVLHQDWLNGKEYKCKVSNKALPAPIEKTISKAKGQPREPQVYTLPPSREEMTKNQVSLTCLVKGFYPSDIAVEWESNGQPENNYKTTPPVLDSDGSFFLYSKLTVDKSRWQQGNVFSCSVMHEALHNHYTQKSLSLSPGK
light: DIQMTQSPSSLSASVGDRVTITCRASQDIRSNLNWYQQKPGGAVKLLIYYTSRLHSGVPSRFSGSGSGTDYTLTISSLQPEDFATYFCQQSEKLPRTFGGGTKVEIRRTVAAPSVFIFPPSDEQLKSGTASVVCLLNNFYPREAKVQWKVDNALQSGNSQESVTEQDSKDSTYSLSSTLTLSKADYEKHKVYACEVTHQGLSSPVTKSFNRGEC
notes: copies: 2 + 2
EC50 (Ly050): 0.00339 µg/mL
EC50 [1]: 0.33 nM and 0.0474 µg/mL
EC50 [2]: 0.0572 µg/mL
EC50 (Ly051): ~0.00101 µg/mL
EC50 (Ly110): 0.101 µg/mL
EC50 (read off the curve) [3]: ~0.05 µg/mL
binding result [4]: no binding (tested: 10 µg/mL)
